± gives the uncertainty stated by the source.
Assay: amyloid nucleation score (Sup35N fusion, yeast selection) (log enrichment); library NNK1; higher = more nucleation; inactive = no reads after selection
Summary of the method: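 Using DiMSum, nucleation scores were taken as the log enrichment of output over input reads, centred on the mode score of non-aggregating sequences. The input and output reads came from Illumina sequencing of plasmid inserts, with sequences under 100 input reads excluded. The yeast were psi-negative, expressed Sup35N fused to peptides of 20 random codons, were induced with 100 μM copper sulfate for 24 hours, and were grown 7 days at 30°C on medium lacking adenine and uracil.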

| Substance | amyloid nucleation score |
| --- | --- |
| SKYRLNAMWSACRQRWANIG | -0.995 ± 1.7 |
| SLCGTS | -0.222 ± 0.46 |
| SLDCWLMGGRTANLVRRLGR | -0.39 ± 0.95 |
| SLDVICPGVYLEMLGRESIL | -0.416 ± 0.84 |
| SLFKNR | 0.171 ± 0.61 |
| SLFLAGIMDIRGWYVVASTP | -0.34 ± 0.54 |
| SLFMDRFNVDVI | -0.107 ± 0.35 |
| SLHSDVRHRRVVYVVREIAY | -0.096 ± 1.1 |
| SLIKLVYWSHARNNCELW | 3.5 ± 0.074 |
| SLIRSMTISDNLIMWAGWTY | -0.7 ± 0.38 |
| SLLNTELQIKAQYDQMSHRR | 0.36 ± 0.44 |
| SLLYSITNVCTLRGRMCCLA | 0.116 ± 0.45 |
| SLMCSPNGDESRQWNPRARQ | inactive |
| SLMGALEIQRCSAFSSFLFR | 1.32 ± 0.41 |
| SLMIDRTRLGGN | 0.769 ± 0.17 |
| SLMRPCKCNAYCMIELITLY | inactive |
| SLMSLLLNFVNLTNNNLSPF | -2.99 ± 1.6 |
| SLNREYVYKRGGVREWCRYL | 0.856 ± 0.59 |
| SLPQKGIHWRQYL | 0.368 ± 0.61 |
| SLQAIGNWYHD | 0.038 ± 0.6 |
| SLRSPWDRCSFRHFLPFFTM | -0.735 ± 0.69 |
| SLRVTLTGQTDLASEFQWWL | inactive |
| SLSCTTLCLEYYRYCVRTYG | 0.196 ± 0.7 |
| SLSMSRIQMHNRYKPGTQFD | 1.07 ± 0.46 |

| Substance | amyloid nucleation score |
| --- | --- |
| SLSTVNRKAV | -0.637 ± 0.57 |
| SLTVLCKVFFSCNQAGLLHG | 0.17 ± 0.5 |
| SLVPVYI | 0.167 ± 0.35 |
| SLVVEMVNYE | -0.039 ± 0.29 |
| SMAIVDRWLMQGSSQPAGS | 0.702 ± 0.53 |
| SMFNQRWWVSPVVYGLIVWP | 1.33 ± 0.79 |
| SMGLYRDLRLKCFC | 1.02 ± 0.47 |
| SMMKRVTAVVNVFYRFDIKA | inactive |
| SMSPTDICYWCLYHSAYIRD | 1.55 ± 0.3 |
| SMVYAYAAIILGWWNWGRGC | 0.003 ± 1.1 |
| SMWVWMHICEAMG | 4.6 ± 0.11 |
| SNFHRNVYRGYRV | inactive |
| SNFVALYDRYNCFSVCIYCG | 5.78 ± 0.063 |
| SNIREPDFRCIGLATF | 0.523 ± 0.7 |
| SNISSHQEASWRAYRFSESV | 0.147 ± 0.57 |
| SNLHNCLRGNGCWVIAIDVV | -0.251 ± 0.81 |
| SNLVCII | 0.211 ± 0.59 |
| SNTRFSCRSPWVCTFFVREV | 0.085 ± 0.52 |
| SNVICRGR | 1.41 ± 0.31 |
| SPAMYPHNSRFLMYITSFMQ | 1.08 ± 0.72 |
| SPGVDGWNPWVDTVLRKVSK | -0.776 ± 0.61 |
| SPHAIGRYLSFCRFCGTAAR | -0.026 ± 0.35 |
| SPLFPRKLQVQYKTYPYG | inactive |
| SPQQVSLVGWSRWTEPRTS | -0.211 ± 0.36 |

| Substance | amyloid nucleation score |
| --- | --- |
| SPRRLGAVMVSRRVGVGKGW | 0.402 ± 1.4 |
| SPSSVYVINLNSNLRGNGFA | 7.08 ± 0.078 |
| SPTIVIKHRLNLESKRGYKV | -0.216 ± 0.44 |
| SPWFAHITPRVIMEERH | -1.18 ± 0.79 |
| SQCLSKLLSIDISRCWAGQM | 2.59 ± 0.46 |
| SQIADHIRSPRNL | -1.37 ± 2.1 |
| SQIASVINAQSSMCRFV | -0.023 ± 0.38 |
| SQLVHERNSVGFEIVWMNHL | -0.249 ± 1.7 |
| SQMAVYRPHLLVSSFMFTRS | 0.274 ± 0.57 |
| SQSTLCSHTP | 1.13 ± 0.74 |
| SQVEVIVYNVVSFTDGVRLA | 3.89 ± 0.097 |
| SQYQTLDVHIKGNVCSNLDM | 0.012 ± 1.6 |
| SQYSADSVHGCHLSVSPTWF | 1 ± 0.81 |
| SRAWWVKEFRGVKEVIQVRF | 0.488 ± 0.56 |
| SRCCGPCYTAV | -0.115 ± 0.3 |
| SRCYMDSIV | 0.101 ± 0.36 |
| SRFNPSQRMHSNSGKGGVSF | inactive |
| SRFWGER | 0.801 ± 0.62 |
| SRGLNFVIVTFYCDLLQG | -0.881 ± 1.6 |
| SRGLRNLSSMPNWAGLP | 0.707 ± 0.61 |
| SRGTGRARDAAA | -0.488 ± 1.1 |
| SRLRCMEH | 2.51 ± 0.15 |
